Experimental data taken from patent US20250145722A1, “ANTI-GAL3 ANTIBODIES AND METHODS OF USE” (TrueBinding, Inc., priority 2020, published 2025).
Changes are numbered by the printed parent chain.

B1: 7D8.2D8 (antibody, mouse IgG2a, V domains shown)
VH: EVQLVESGGGLVKPGGSLKLSCAASGFTFSSYAMSWVRQTPEKRLEWVATISDGGIYTYYPDNVKGRFTISRDNAKNNLFLQMSHLKSEDTAMYYCVRDGGYWGQGTTLTVSS
VL: DVLMTQTPLSLPVSLGDQASISCRSSQSIVHSNGNTYLEWYLQKPGQSPKLLIYKVSNRFSGVPDRFSGSGSGTDFTLKISRVEAEDLGVYYCFQGSHVPLTFGAGTKLELKR
B2: 15F10.2D6 (antibody, mouse IgG2a, V domains shown)
VH: B1 VH with T28A, I56V, P61T, N63H, K76E, N77D, F80Y
VL: B1 VL with S32N, A105G
B3: 12G5.D7 (antibody, from a related filing, V domains shown)
VH: QVQLKQSGAELVRPGASVKLSCKASGYTFTDYYINWVKQRPGQGLEWIARIYPGTGNTDYNEKFKGRATLTAEKSSSTAYMQLSSLTSEDSAVYFCARFAYYYGSGGYFDYWGHGTTLTVSS
VL: DILMTQSPSSMSVSLGDTVSITCHASQGINSNMGWLQQKPGKSFKGLIYHATNLEDGVPSRFSGSGSGADYSLTISSLESEDFADYYCVQYAQFPPTFGSGTKLEIK
B4: TB001 (antibody, IgG4, V domains shown)
VH: QVQLVQSGSELKKPGASVKVSCKASGYTFTNYGMNWVRQAPGQGLKWMGWINTNTGEPTYVEEFTGRFVFSLETSVSTAYLQISSLKAEDTAVYFCAPYDNFFAYWGQGTTVTVSS
VL: DIVLTQSPLSLPVTPGEPASISCRSSKSLLYKDGKTYLNWFLQKPGQSPQLLIYLMSTHASGVPDRFSGSGSGTDFTLKISRVEAEDVGVYYCQQLVDYPLTFGGGTKLEIKR
B5: TB006 (antibody, V domains shown)
VH: QVQLVQSGAEVKKPGASVKVSCKASGYSFTNYYMHWVRQAPGQRLEWMGWIYPGSGNTNYNEKFQGRVTITADTSASTAYMELSSLRSEDTAVYYCSTAPGGFDVWGQGTTVTVSS
VL: DIVMTQTPLSLSVTPGQPASISCKSSKSLLHSDGITYLYWYLQKPGQSPQLLIYRMSNLASGVPDRFSGSGSGTDFTLKISRVEAEDVGVYYCAQMLEFPLTFGQGTKLEIKR

Columns and labels:
[1] = biological target: human Galectin-3 (Gal3), full-length recombinant (human) (UniProt P17931); test: blocking ELISA, Gal3 coated, biotin-TLR4
[2] = biological target: human Galectin-3 (Gal3), full-length recombinant (human) (UniProt P17931); test: blocking ELISA, Gal3 coated, PDGFR alpha-Fc, antibody 20 µg/ml
[3] = biological target: human Galectin-3 (Gal3), full-length recombinant (human) (UniProt P17931); test: blocking ELISA, Gal3 coated, EGFR-Fc, antibody 20 µg/ml
[4] = biological target: human Galectin-3 (Gal3), full-length recombinant (human) (UniProt P17931); test: blocking ELISA, Gal3 coated, VEGFR3-Fc, antibody 20 µg/ml
[5] = biological target: human Galectin-3 (Gal3), full-length recombinant (human) (UniProt P17931); test: blocking ELISA, Gal3 coated, TREM2-His
[6] = biological target: human Galectin-3 (Gal3), full-length recombinant (human) (UniProt P17931); test: blocking ELISA, Gal3 coated, biotin-APP695
[7] = biological target: human Galectin-3 (Gal3), full-length recombinant (human) (UniProt P17931); test: blocking ELISA, Gal3 coated, PDGFR beta-Fc, antibody 20 µg/ml
[8] = biological target: human Galectin-3 (Gal3), full-length recombinant (human) (UniProt P17931); test: blocking ELISA, Gal3 coated, biotin-Tau aggregates
[9] = biological target: human Galectin-3 (Gal3), full-length recombinant (human) (UniProt P17931); test: blocking ELISA, Gal3 coated, biotin-Abeta42 peptide
[10] = biological target: human Galectin-3 (Gal3), full-length recombinant (human) (UniProt P17931); test: blocking ELISA, Gal3 coated, biotin-α-synuclein aggregates
[11] = biological target: human Galectin-3 (Gal3), full-length recombinant (human) (UniProt P17931); test: blocking ELISA, Gal3 coated, biotin-Abeta42 oligomer
[12] = biological target: cynomolgus Gal3 (cynomolgus); test: not stated (FIG. 50)

Chain of human Galectin-3 (Gal3), full-length recombinant (human) (P17931 2-250 limits assumed): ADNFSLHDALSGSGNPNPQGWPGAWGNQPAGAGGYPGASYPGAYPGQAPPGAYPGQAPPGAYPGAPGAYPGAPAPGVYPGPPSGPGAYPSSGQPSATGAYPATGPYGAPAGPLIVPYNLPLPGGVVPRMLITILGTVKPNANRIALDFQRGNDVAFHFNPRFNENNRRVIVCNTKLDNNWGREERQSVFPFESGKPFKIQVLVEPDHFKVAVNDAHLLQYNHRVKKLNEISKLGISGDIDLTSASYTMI

| Binder | % blocking of Gal3-TLR4 binding [1] | % blocking of Gal3-TREM2 binding [5] | % blocking of Gal3-APP695 binding [6] | % blocking of Gal3-Tau aggregates binding [8] | Kd [12] | other results |
| --- | --- | --- | --- | --- | --- | --- |
| B1 | > 90% | > 90% | > 90% | – | – | % blocking of Gal3-PDGFR alpha binding [2]: < 30%; % blocking of Gal3-EGFR binding [3]: < 30%; % blocking of Gal3-VEGFR3 binding [4]: < 30%; % blocking of Gal3-PDGFR beta binding [7]: < 30% |
| B2 | > 90% | > 90% | > 90% | < 50% | – | – |
| B3 | – | – | > 86% | < 50% | – | % blocking of Gal3-Abeta42 peptide binding [9]: < 46%; % blocking of Gal3-α-synuclein aggregates binding [10]: < 50%; % blocking of Gal3-Abeta42 oligomer binding [11]: < 26% |
| B4 | – | – | – | – | 8.9 nM | – |
| B5 | – | – | – | – | 5.1 nM | – |
